Molecular target: GST-human NOGO-A56 (human) (UniProt Q9NQC3)
Assay: SPR (Biacore 3000), GST-human NOGO-A56 on CM5 chip, antibody as analyte; single experiment

Chain of GST-human NOGO-A56 (human) (Q9NQC3 586-785): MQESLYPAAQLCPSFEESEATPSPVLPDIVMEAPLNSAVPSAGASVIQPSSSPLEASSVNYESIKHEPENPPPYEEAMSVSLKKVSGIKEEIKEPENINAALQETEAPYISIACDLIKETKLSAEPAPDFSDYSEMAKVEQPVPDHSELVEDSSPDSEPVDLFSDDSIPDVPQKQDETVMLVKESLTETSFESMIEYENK

11C7 (chimeric version) (antibody)
Kd: 0.057 nM | koff: 8.25e-05 s⁻¹ | kon: 1.44e+06 M⁻¹ s⁻¹
